Test results taken from the DeepSol protein solubility set.

Assay: soluble on expression in E. coli; label from the status in PepcDB or PDB records

MSESSEWLIYRGAGEPHDGVDRLPDPPPWRDFTSRDAAGSGDGSEDRRLGAHRHLAELHRPGAEELEMINAALYLRRPLLVTGSPGAGKSTLAHSVAYELGLGNVLRWSIVSRSELQDGLYHYDAIARLQDVQIAAQADNGPGSGTPGAVDGIGGYIRLGPLGTALLPSDKPRVLLIDELDKSDIDLPNDLLNVLEEGEFAIPELERVADRLPDRTAEVLTADGVKVPVRDGRVRCRAFPFVVLTSNGERDFPAPLMRRCIHLELGRPDHNRLATFVRAHLGDEAARAGDDLVTRFLERSRSELLATDQLLNAIYLTDAAATPSRDRLADLLIQRLDRPRLEHHHHHH
soluble on expression in E. coli: soluble

MGSDKIHHHHHHMIREIRITSFEGLISEMESLGKELWFRGVTNKNYSLIPGSVRFDLNGWKEVSAVLDFMASYQNHHDYIESNWELYSLMQHYGFPTRLLDWSTSVIVALYFALDGDADVDDAGSAIDRVVWGMTTGMLNNLNFLNRRVIPTAIGKATTGEKYLPSPLRKKEGDDFEFEKNPLAVKMPFTNKRVSAQKGCFTIHGSNPKGIEEIMEENGLGSELIKFVFDEEAAMAIRKTLYKLDINEDDIYQDLNSLSKRIVLVNPNWTLLVENFQILQVTDHH
soluble on expression in E. coli: not soluble

MGSDKIHHHHHHMELRHLRYFAATAEELNFTRAANRLHISQPAVSRLIKELECELGAQLFTRERFGLRLTAAGEKFLFYARRVLQDCEEGIRAVRENGLNHQKLTIGFISTAMESFLSDALVRLSQERPDIDVTVNEMSPGDQIAALRYRQIDLGFIGNPHDGAGDEFELYVLREVPLVAVLPVRHRLAGRSEICIGELEGDTFIGYLEDKFPGRNRVISTACARAGFRPKFELKAGSLIEVLGMIGTGKGVCLMPSDVAGLPHPNVAFIPLRDPLDPVRLAAAWLPGNTNPALHQLIAILAADCSSDTGRTSR
soluble on expression in E. coli: not soluble

MGSDKIHHHHHHMKEQKLSNRFCPEGMTVEEWQVGLRREFAEQNPFDVEHLDENRIWGDYLVANGRNRYRVAFRGVRSERNYCSCLDFRTNGLGTCKHIEAVTLFLQDQVPGYPWGEFDYTPEYSSIYVSYKGGRSIKMRVGREETARFEALRARFFDESGTLPPENYSFLPQICDEAKDIAASFRCYEDVFDLTQEHCRRMEWQDYLRETNPDKRVDNEYTADMPEEMRRHVYDLAYEGHGVMVGLPSDVIVREVVALADVYLRDQPGATGYVIINDPQRFILWRNAFANPALRRLPIEVMHASAFVKKVANNVPPCTFMFVEQAARLKEWRDPVSVAIKRMQIDHLYMNLETIEDLTPVQFSSVVQHIDPFILGPFYRFIRDYRPIFPLRNDGSNLPDDVRDFMFLYTSDSIREMNEMLPPIRTAEILLHGTDAEEEIDKLLRHLNRVLSNDTLREVFLKRISMIVGAS
soluble on expression in E. coli: not soluble

PNEKFCFEGFLPQKKGRMTKLKSLVDEHRTMVFYESPHRLLKTLTQFAEYFGPERQVSVSREISKIHEETVRGTLSELIEHFTATDPRGEIVIVLAGIDD
soluble on expression in E. coli: not soluble

MSLVSIDLPIEGRLARYDLTGRPVPFNSRDAKAFSRVAFAAAHVVADPLADNDPWLAPAIDWERTLAFRHRLWDLGLGVAESMDTAQRGMGLGWPEARELIRRSLAEARGRPDALIACGAGTDHLAPGPDVSIDDILAAYESQIEAIEAEGGRIILMASRALAAAAKGPEDYIRVYDRVLSQVKEPVIIHWLGEMFDPALEGYWGNADHMAAMKTCLDVLEAHAAKVDGIKISLLSKEKEIVMRRQLPKGVRMYTGDDFNYAELIAGDEEGHSDALLGIFDAIAPVASAALEALGSGRNGEFFELLEPTVPLSRHIFKAPTRFYKTGVVFLAYLNGLQDHFVMIGGQQSARSLVHLAELFRLADKAGALADPELATARMRRVLAMHGVEEGHHHHHH
soluble on expression in E. coli: soluble

EVVVIGYGSVKKDDLSGSVVAIKAEEMNKGAVTSPQELIMGKVPGLSVSQGDGAPGAGSTIRIRGGASLNASNDPLIVIDGIPVSNDAAPGTPNALATINPNDIETFTVLKDASATAIYGSRASNGVIII
soluble on expression in E. coli: not soluble

MGSDKIHHHHHHMSVPQRPHQFVLTLSCPSAAGQVAAVVGLLDRHRCYVDELTVFDDDLSARFFVRCVFHATDDADALRVDALRREFEPIAERFRMQWAIHDVAARPKVLIMVSKLEHCLADLLFRWKMGELKMDIVGIVSNHPDFAPLAAQHGLPFRHFPITADTKAQQEAQWLDVFETSGAELVILARYMQVLSPEASARLANRAINIHHSFLPGFKGAKPYHQAHARGVKLIGATAHFVTDDLDEGPIIEQVVERVDHSYRPEQLLAVGRDVECITLARAVKAFIERRVFLNGDRTVVFQ
soluble on expression in E. coli: not soluble

VLKLDRQTQIWNRASLESGGATPAAGDIALASLLLAHGLAMNGGVAHAIESLSQAEIAAAIDGFNYFGLTDASHVFEQRPDDSEDVEERLNMMYRTAVPNDRVLAHAFRVKLVSTPSAFAPIDHGAHV
soluble on expression in E. coli: not soluble

MSLKQNGGLTDLTGSVAFGTTPLSPGVTDRLYYPSRRNKGAALSDDKACFLSVPRSGGKGPPPEYDGAGRVTLFSGYLFDRERLARKLGGDHSWPDVRLAAAWIAHHGLDRLADLAGDYALSHWDPGARRLFLAVAPMGSRLLYWHRVGTICHFATTVAGLHRIPDIPRVVDPLHLTARFSAMVGDPTRTVYKDIHQIVPGDMLVADVNANRYVPLWRPDAERRLRLANEREYLEAADELLERAVARRLQAAHAPAFLSSGGLDSAAMLTTASRLAGDRKVRSYTIVPSPGLCVTADRGWYGDERAKVADLAASHTNLDIRLCHSLVPSPLETNPAHLFMATGLPCMIANQIGWLDIAFQQMQQAGHDAVLSGQSGNFTFSYDGNLCFADLIREGRPLTALRLLAQVARYKQQGFAPMVRHRVVVPLLPDAFYYGQRRWRGRPHPLADRTLTRPGWREKVGLDDYLADHGEQPFQERDSRSRQQIIHFMLKRRAMTLPNAHALETVRGTHYRDVYADRDLLEFILAIPRDQFILDGRNRSLARRLLAMRGVPDSIVNERAIGQEGHHHHHH
soluble on expression in E. coli: not soluble

SMKAIVVINLVKINKKIIPDKIYVYRLFNDPEEELQKEGYSIYRLAYENVGIVIDPENLIIATTKELEYEGEFIPEGEISFSELRNDYQSKLVLRLLKENGIGEYELSKLLRKFRKPKTFGDYKVIPSVEMSVIKHDEDFYLVIHIIHQIQSMKTLWELVNKDPKELEEFLMTHKENLMLKDIASPLKTVYKPCFEEYTKKPKLDHNQEIVKYWYNYHIERYWNTPEAKLEFYRKFGQVDLKQPAILAKFASKIKKNKNYKIYLLPQLVVPTYNAEQLESDVAKEILEYTKLMPEERKELLENILAEVDSDIIDKSLSEIEVEKIAQELENKIRVRDDKGNSVPISQLNVQKSQLLLWTNYSRKYPVILPYEVPEKFRKIREIPMFIILDSGLLADIQNFATNEFRELVKSMYYSLAKKYNSLAKKARSTNEIGLPFLDFRGKEKVITEDLNSDKGIIEVVEQVSSFMKGKELGLAFIAARNKLSSEKFEEIKRRLFNLNVISQVVNEDTLKNKRDKYDRNRLDLFVRHNLLFQVLSKLGVKYYVLDYRFNYDYIIGIDVAPMKRSEGYIGGSAVMFDSQGYIRKIVPIKIGEQRGESVDMNEFFKEMVDKFKEFNIKLDNKKILLLRDGRITNNEEEGLKYISEMFDIEVVTMDVIKNHPVRAFANMKMYFNLGGAIYLIPHKLKQAKGTPIPIKLAKKRIIKNGKVEKQSITRQDVLDIFILTRLNYGSISADMRLPAPVHYAHKFANAIRNEWKIKEEFLAEGFLYFV
soluble on expression in E. coli: soluble

PKEQSMKIVVIGGTGLIGSNVVNRLRRDGHETVAASPGTGVNTITGEGLAQALDGAQVVVDVANSPSFEDQAVMAFFETSGRTLLAAEAAAGVTHHLALSVVGTDRLADSGYFRAKVAQEALIKASKVPYTILRATQFFE
soluble on expression in E. coli: not soluble

MGSDKIHHHHHHMILAAKLFGISENGIRVAVTRLASEGVIVSAERGFYQLSEQSLEWADVMLNRRAGLKETKAWNQKYLCVLTGTLGRVDRTALKRRERALKKYGFRELEPSVYIRPDNLVISLEDMLEHMKSIGLESGAKMCHINSFDQITTGMIKDLWQTENLNKNYEKYSHIIQHWLSRVPALGLEDAARESLLLGRQTISLLMNDPLLPEPFVNVEARDQFTADVKKLDEVGQRLWKQLHELTFGTAATSLLNLELPAVADVTPKILN
soluble on expression in E. coli: not soluble

MAPTVERKNINLAPLKAAGVPIFFIVGGPGSGKGTQCDKIVAKYGLTHLSSGDLLRDEVKSGSPRGAQLTAIMESGALVPLEVVLDLVKEAMLKAIEKGSKGFLIDGYPREVAQGQQFESEIQEAKLVLFFDVAEETLVKRLLHRAQTSGRADDNADTIKKRLHTFVTSTAPVVDYYESKGKLVRINAEGSVDDIFAVVVANLDKATSKL
soluble on expression in E. coli: soluble
